Molecular target: T1, biotinylated human VWF cysteine knot (CK) domain construct (human, biotin on the in vitro biotinylation tag (residue not stated); one N-glycan)
T1 construct: Disulfide-linked homodimer; also called biotinylated human VWF CK domain; human VWF CK domain construct
T1 chain: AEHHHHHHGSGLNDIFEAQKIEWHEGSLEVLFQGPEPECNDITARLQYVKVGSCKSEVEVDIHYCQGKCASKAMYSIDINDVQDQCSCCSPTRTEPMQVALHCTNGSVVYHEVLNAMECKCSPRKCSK
Assay: SPR, scFv captured on anti-SV5, pH 7.4

B1: Lib1_P1_F10_scFv (scFv, not shown: small tags and cut ends)
scFv: QVQLVQSGAEVKKPGASVKVSCKVSGYTFSSSGIHWVRQAPGKGLEWMGGIFPNFGTAIYAQKFQGRVTMTEDTSTDTAYMELSSLKSEDTAVYYCARESDFWSGSFTNWGQGTLVTVSSSGGSTITSYNVYYTKLSSSGTDIQMTQSPSSVSASVGDRVTITCRASRSIGNWLAWYQQKPGKAPKLLIYDAFNRASGVPSRFSGSGSGTDFTLTISSLQPEDFANYYCQQSYSTLPRYSFGGGTKVEIK
B1: binds.

B2: 4956_Lib1_scFv (scFv, not shown: small tags and cut ends)
scFv: QVQLVQSGAEVKKPGASVKVSCKVSGYTLTSNYIHWVRQAPGKGLEWMGGFNPSSGSTIYAQKFQGRVTMTEDTSTDTAYMELSSLKSEDTAVYYCARTLYDFWSGYLDAFDIWGQGTMVTVSSSGGSTITSYNVYYTKLSSSGTDIQMTQSPSSVSASVGDRVTITCRASQNIRSSLAWYQQKPGKAPKLLIYAASNLEPGVPSRFSGSGSGTDFTLTISSLQPEDFANYYCQQYEDTPLTFGGGTKVEIK
B2: binds.

B3: 4675_Lib4_scFv (scFv, not shown: small tags and cut ends)
scFv: QVQLQESGPGLVKPSQTLSLTCTVSGFSLTSHPEGVNWIRQPPGKGLEWIGYIAHSGTTDYNPSLKSRVTMSVDTSKNQFSLKVNSVTAADTAVYYCARAYGDSDAFDIWGQGTMVTVSSSGGSTITSYNVYYTKLSSSGTEIVMTQSPATLSLSPGERATLSCRASQSIGRNLAWYQQKPGQAPRLLIYGASKRVTGIPARFSGSGSGTDFTLTISSLEPEDFAVYYCQQYSTWPTFGGGTKVEIK
B3: binds.

B4: 27_Lib4_scFv (scFv, not shown: small tags and cut ends)
scFv: QVQLQESGPGLVKPSQTLSLTCTVSGASFGDHYWSWIRQPPGKGLEWIGYIDATGSIDYNPSLKSRVTMSVDTSKNQFSLKVNSVTAADTAVYYCARVASYYYYMDVWGKGTTVTVSSSGGSTITSYNVYYTKLSSSGTEIVMTQSPATLSLSPGERATLSCRASQSITGSYLAWYQQKPGQAPRLLIYGASDRAPGIPARFSGSGSGTDFTLTISSLEPEDFAVYYCQQYGSFPYTFGGGTKVEIK
B4: binds.

B5: 69_Lib8_scFv (scFv, not shown: small tags and cut ends)
scFv: EVQLVESGGGLVQPGRSLRLSCAASAFTFSNYDMHWVRQAPGKGLEWVSAISGSGDTSDYADSVEGRFTISRDNAKNSLYLQMNSLRAEDTAVYYCVRASWYGTFFDYWGQGTLVTVSSSGGSTITSYNVYYTKLSSSGTDIQMTQSPSSLSASVGDRVTITCRASQSVSGWLAWYQQKPGKAPKLLIYGTSTLQSGVPSRFSGSGSGTDFTLTISSLQPEDVATYYCQQSYSAPYTFGGGTKVEIK
B5: binds.

B6: 399_Lib1_scFv (scFv, not shown: small tags and cut ends)
scFv: QVQLVQSGAEVKKPGASVKVSCKVSGITFTSDYIHWVRQAPGKGLEWMGGMNPYSNKAIYAQKFQGRVTMTEDTSTDTAYMELSSLKSEDTAVYYCATGGLRIAARTSYFDYWGQGTLVTVSSSGGSTITSYNVYYTKLSSSGTDIQMTQSPSSVSASVGDRVTITCRASMDIAGSLAWYQQKPGKAPKLLIYDTSFRATGVPSRFSGSGSGTDFTLTISSLQPEDFANYYCQQYDNPPRLTFGGGTKVEIK
B6: binds.

B7: 965_Lib4_scFv (scFv, not shown: small tags and cut ends)
scFv: QVQLQESGPGLVKPSQTLSLTCTVSGASFGDNYWSWIRQPPGKGLEWIGYIDTSGSSDYNPSLKSRVTMSVDTSKNQFSLKVNSVTAADTAVYYCARDALGYYYMDVWGKGTTVTVSSSGGSTITSYNVYYTKLSSSGTEIVMTQSPATLSLSPGERATLSCRASQGISGRLAWYQQKPGQAPRLLIYDASARASGIPARFSGSGSGTDFTLTISSLEPEDFAVYYCQQYGTSPYTFGGGTKVEIK
B7: binds.

B8: Lib4_P2_A11_scFv (scFv, not shown: small tags and cut ends)
scFv: QVQLQESGPGLVKPSQTLSLTCTVSGVTFSSYGWSWIRQPPGKGLEWIGYVDTSGSTDYNPSLKSRVTMSVDTSKNQFSLKVNSVTAADTAVYYCARTTYYYDSSGFARGWFDPWGQGTLVTVSSSGGSTITSYNVYYTKLSSSGTEIVMTQSPATLSLSPGERATLSCRASRSISTNLAWYQRKPGQAPRLLIYDTSNRAPGIPARFSGSGSGTDFTLTISSLEPEDFAVYYCLQYDVSPYTFGGGTKVEIK
notes: also called Lib4_P2_All
B8: binds.

B9: 7046_Lib8_scFv (scFv, not shown: small tags and cut ends)
scFv: EVQLVESGGGLVQPGRSLRLSCAASGFNFHNYDMHWVRQAPGKGLEWVSAISGSGYTADYADSVEGRFTISRDNAKNSLYLQMNSLRAEDTAVYYCAKSHSSGWSSAFDIWGQGTMVTVSSSGGSTITSYNVYYTKLSSSGTDIQMTQSPSSLSASVGDRVTITCRASQTIGYWLAWYQQKPGKAPKLLIYDATNLATGVPSRFSGSGSGTDFTLTISSLQPEDVATYYCQHYNPYSQVTFGGGTKVEIK
B9: binds.

B10: 1675_Lib1_scFv (scFv, not shown: small tags and cut ends)
scFv: QVQLVQSGAEVKKPGASVKVSCKVSGVTLTSSAISWVRQAPGKGLEWMGGITPIFGTPIYAQKFQGRVTMTEDTSTDTAYMELSSLKSEDTAVYYCATDYGYPFWAFDIWGQGTMVTVSSSGGSTITSYNVYYTKLSSSGTDIQMTQSPSSVSASVGDRVTITCRASQGIYSALAWYQQKPGKAPKLLIYESSKRPSGVPSRFSGSGSGTDFTLTISSLQPEDFANYYCEQYASSPPTFGGGTKVEIK
B10: binds.

B11: 16_Lib8_scFv (scFv, not shown: small tags and cut ends)
scFv: EVQLVESGGGLVQPGRSLRLSCAASGFRFDEYDMHWVRQAPGKGLEWVSAISSESASIDYADSVEGRFTISRDNAKNSLYLQMNSLRAEDTAVYYCARDGAYGDYFDYWGQGTMVTVSSSGGSTITSYNVYYTKLSSSGTDIQMTQSPSSLSASVGDRVTITCRASQDIKSWLAWYQQKPGKAPKLLIYGASTLQSGVPSRFSGSGSGTDFTLTISSLQPEDVATYYCQQSYSAPYTFGGGTKVEIK
B11: binds.

B12: 5662_Lib8_scFv (scFv, not shown: small tags and cut ends)
scFv: EVQLVESGGGLVQPGRSLRLSCAASGFNFHNYDMHWVRQAPGKGLEWVSAIDISGQSTDYADSVEGRFTISRDNAKNSLYLQMNSLRAEDTAVYYCAREGWYGGVFDYWGQGTLVTVSSSGGSTITSYNVYYTKLSSSGTDIQMTQSPSSLSASVGDRVTITCRASQDIANWLAWYQQKPGKAPKLLIYGASESGVGVPSRFSGSGSGTDFTLTISSLQPEDVATYYCQQSLTMKTFGGGTKVEIK
B12: binds.

B13: Lib6_P3_A8_scFv (scFv, not shown: small tags and cut ends)
scFv: EVQLVQSGAEVKKPGASVKVSCKASGYRFTNYDISWVRQAPGQGLEWMGGINPSSGITIYAQKLQGRGTMTTDPSTSTAYMELRSLRSDDTAVYYCARGAAYGDYLDYWGQGTLVTVSSSGGSTITSYNVYYTKLSSSGTESALTQPASVSGSPGQSITISCTGTNLGEKYVSWYQQHPGKAPKLMIYSTSQRPSGVSNRFSGSKSGNTASLTITGLQAEDEADYYCSSYTASSTPGLVFGGGTKLTVL
B13: binds.

B14: 2301_Lib4_scFv (scFv, not shown: small tags and cut ends)
scFv: QVQLQESGPGLVKPSQTLSLTCTVSGASISTSDHSWSWIRQPPGKGLEWIGYIRDTGSTDYNPSLKSRVTMSVDTSKNQFSLKVNSVTAADTAVYYCAISSTERWKQSFGVDTEYFQHWGQGTLVTVSSSGGSTITSYNVYYTKLSSSGTEIVMTQSPATLSLSPGERATLSCRASRYVSTNLAWYQQKPGQAPRLLIYDAVTRAPGIPARFSGSGSGTDFTLTISSLEPEDFAVYYCQQYHSLPLIFGGGTKVEIK
B14: binds.

B15: Lib1_P1_G3_scFv (scFv, not shown: small tags and cut ends)
scFv: QVQLVQSGAEVKKPGASVKVSCKVSGYTSRQYIHWVRQAPGKGLEWMGWVTPIFGTTNYAQKFQGRVTMTEDTSTDTAYMELSSLKSEDTAVYYCAREWTGTTAFDIWGQGTLVTVSSSGGSTITSYNVYYTKLSSSGTDIQMTQSPSSVSASVGDRVTITCRASQDIGHYLAWYQQKPGKAPKLLIYAASNRASGVPSRFSGSGSGTDFTLTISSLQPEDFANYYCQQGYSAPYGFGGGTKVEIK
B15: binds.

B16: 76_Lib4_scFv (scFv, not shown: small tags and cut ends)
scFv: QVQLQESGPGLVKPSQTLSLTCTVSGVSISNHYWSWIRQPPGKGLEWIGYIDESGSTDYNPSLKSRVTMSVDTSKNQFSLKVNSVTAADTAVYYCARVSWGYYAMDVWGQGTTVTVSSSGGSTITSYNVYYTKLSSSGTEIVMTQSPATLSLSPGERATLSCRASQGVSGHLAWYQQKPGQAPRLLIYETSKRATGIPARFSGSGSGTDFTLTISSLEPEDFAVYYCQQYNDYPLGFGGGTKVEIK
B16: binds.

B17: Lib4_P2_A10_scFv (scFv, not shown: small tags and cut ends)
scFv: QVQLQESGPGLVKPSQTLSLTCTVSGASLGHQYWSWIRQPPGKGLEWIGYIDTSGSTDYNPSLKSRVTMSVDTSKNQFSLKVNSVTAADTAVYYCARVANYYYYMDVWGKGTTVTVSSSGGSTITSYNVYYTKLSSSGTEIVMTQSPATLSLSPGERATLSCRASQSVSNRLAWYQQKPGQAPRLLIYDASNRATGIPARFSGSGSGTDFTLTISSLEPEDFAVYYCQQYFITPSTFGGGTKVEIK
B17: binds.

B18: Lib4_P2_D1_scFv (scFv, not shown: small tags and cut ends)
scFv: QVQLVQSGAEVKKPGASVKVSCKVSGDTLSNYAIHWVRQAPGKGLEWMGGINPNAGTTIYAQKFQGRVTMTEDTSTDTAYMELSSLKSEDTAVYYCARDSSSWCPVGYYYYYMDVWGKGTTVTVSSSGGSTITSYNVYYTKLSSSGTDIQMTQSPSSVSASVGDRVTITCRASQSIGDFLAWYQQKPGKAPKLLIYDASHLQTGVPSRFSGSGSGTDFTLTISSLQPEDFANYYCQQTSTIPPTFGGGTKVEIK
B18: binds.

B19: 15244_Lib8_scFv (scFv, not shown: small tags and cut ends)
scFv: EVQLVESGGGLVQPGRSLRLSCAASGFTFADYDMHWVRQAPGKGLEWVSATSSHGVTTDYADSVEGRFTISRDNAKNSLYLQMNSLRAEDTAVYYCARGAWSGIAARQYIDYWGQGTLVTVSSSGGSTITSYNVYYTKLSSSGTDIQMTQSPSSLSASVGDRVTITCRASQTIGYWLAWYQQKPGKAPKLLIYDASVPESGVPSRFSGSGSGTDFTLTISSLQPEDVATYYCQQSYSYPLTFGGGTKVEIK
B19: binds.

B20: 11485_Lib1_scFv (scFv, not shown: small tags and cut ends)
scFv: QVQLVQSGAEVKKPGASVKVSCKVSGAPSAAIIHWVRQAPGKGLEWMGGFTQIFGTAIYAQKFQGRVTMTEDTSTDTAYMELSSLKSEDTAVYYCAREGIGGHDAFDIWGQGTMVTVSSSGGSTITSYNVYYTKLSSSGTDIQMTQSPSSVSASVGDRVTITCRASQDISKNLAWYQQKPGKAPKLLIYKASKLESGVPSRFSGSGSGTDFTLTISSLQPEDFANYYCLHDYTYPPTFGGGTKVEIK
B20: binds.

Source: US20250154283A1 (published 2025)
